Measurements: publication PMC10746202

Tests used:
[1] = molecular target: lactoferrin (Homo sapiens) (UniProt P02788); conditions: cited from earlier work
[2] = molecular target: recombinant WU2 (r)PspA possessing only αHD and PRD (Streptococcus pneumoniae serotype 3 strain WU2); assay: SPR; Biacore T200; kinetic study, LF at several concentrations in PBS-P+ injected over rPspA amine-coupled to a CM5 chip; 25°C; fitted to a two-state binding curve

Substance	Kd [1] [nM]	Kd [2] [nM]
mGAPDH (from UniProt P04406)	43.8	–
recombinant lactoferrin (from UniProt P02788 20-710) (natural protein)	–	3.89
